In article doi:10.1101/2021.05.21.445118:

Key:
Experiment in all cases: SPR
[1] = biological target: human extracellular ACE2 p.Glu329Gly (human) (UniProt Q9BYF1)
[2] = biological target: human extracellular ACE2 p.Glu35Lys (human) (UniProt Q9BYF1)
[3] = biological target: human extracellular ACE2 p.Lys26Arg (human) (UniProt Q9BYF1)
[4] = biological target: human extracellular ACE2 p.Ser19Pro (human) (UniProt Q9BYF1)

Substance: SARS-CoV-2 Spike receptor binding domain (from UniProt P0DTC2) (domain or fragment)
- ΔΔG against WT ACE2 [1]: -0.09 kcal/mol
- ΔΔG against WT ACE2 [2]: -0.36 kcal/mol
- ΔΔG against WT ACE2 [3]: 0.26 kcal/mol
- ΔΔG against WT ACE2 [4]: 0.59 kcal/mol
